The source of these data is article PMC4366279 (PLoS ONE, 2015).

To fix the notation:
B1: T. brucei RNA Editing Ligase 1 (TbREL1), full length wild type [modified: [35S]-methionine labelled; [35S]-methionine labelled] [Trypanosoma brucei] / KREPA2 [modified: [35S]-methionine labelled; [35S]-methionine labelled] [Trypanosoma … (parent complex)
chain 1: YMPLPNDQSDFSPYIEIDLPSESRIQSLHKSGLAAQEWVACEKVHGTNFGIYLINQGDHEVVRFAKRSGIMDPNENFFGYHILIDEFTAQIRILNDLLKQKYGLSRVGRLVLNGELFGAKYKHPLVPKSEKWCTLPNGKKFPIAGVQIQREPFPQYSPELHFFAFDIKYSVSGAEEDFVLLGYDEFVEFSSKVPNLLYARALVRGTLDECLAFDVENFMTPLPALLGLGNYPLEGNLAEGVVIRHVRRGDPAVEKHNVSTIIKLRCSSFMELKHPGKQKELKETFIDTVRSGALRRVRGNVTVISDSMLPQVEAAANDLLLNNVSDGRLSNVLSKIGREPLLSGEVSQVDVVLMLAKDALKDFLKEVDSLVLNTTLAFRKLLITNVYFESKRLVEQKWKELMQEEAAAQSEAIPPLSPAAPTKGE
chain 2: MYRRFFRSAAVKHLGTTSAQCLMRATKYPCGAMCRNASSCHPQTLGYQQRFQSTTDKKFHCSVCKKPFRLEMAAKLHLQQAHGGDGSVEAGPGPGVEASSVNVVSTPVPSPISPVERTFVDEEERRPRRMRPTPKPLHQPDRDIPAAAMEEMLGVWDKIGLNRLEGNFVHSTMVMKVFAAPPDVSEIPLYEHVAPEGENPFDSLDHMTTGTVDATYVGHDAFAEVDLVDPFVAAPDQTLNPFRAGKVRNPFTRISPTQREVVKPLQPPQPKEEPLKAPVTPFGQLPMFGQTREPSASFAAAAVSVQAAANPNEVSSPFAAAVSSSPFVGQVASPFAPAQDVAGSPFEASPCAASSPFVTAGGQETSPFAAPSTPASFGQGSLFPPMGTGAPGFTAITETEQRQQELEHGCPTCGKKFSTFEGAAMHSKSKHGIVLESKKVKDRLNRKGVPDLPAYVPSPVDLSSTSPFGTRSAIGASWAETELIPHAQCVSNITIVGRVLDVSQASENVSHVTVFVEGERSGEEETLTLCCFGEVSQKIRGTLKRNATIFASGTLRLHPVYEASNNKYYVSPVVHVSMPTGTLAVIT

In the experiment the parent is B1. The experiment can be described thus: co-precipitation (pull-down) with His-tag isolation beads, [35S]-methionine labeled proteins; parent: 100; read off a plot.
As to chain 1 K391A, the percent of parent is ~88 % of WT.
As to chain 1 W398A, the percent of parent is ~66 % of WT.
With chain 1 K399A, the percent of parent is ~60 % of WT.
In the case of chain 1 K335A, the percent of parent is ~57 % of WT.
Take chain 1 K380A: the percent of parent is ~84 % of WT.
chain 1 E37A: the percent of parent is ~67 % of WT.
Then chain 1 T220A, with ~84 % of WT; and chain 1 Q56A, with ~110 % of WT.
Consider chain 1 Y231A, for which the percent of parent was ~75 % of WT.
chain 1 K361A: the percent of parent was ~67 % of WT.
Then chain 1 K122A, with ~100 % of WT; and chain 1 E411A, with ~94 % of WT; and chain 1 H161A, with ~94 % of WT.
For chain 1 E75A, the percent of parent was ~74 % of WT.
On to chain 1 S259A, for which the percent of parent was ~100 % of WT.
Consider chain 1 E366A, for which the percent of parent was ~72 % of WT.
Turning to chain 1 S170A, the percent of parent is ~66 % of WT.
